Measurements as given in US20210324080A1 (JIANGSU HUAIYU PHARMACEUTICAL, published 2021).
Numbering of substitutions follows the chain as printed.

T1: human CTLA-4 (Y201V), full length, on transfected cells (human, UniProt P16410 36-223)
T1 construct: whole, on cells; also called hCTLA-4; HEK293-hCTLA-4 (Y201V)
T1 sequence (looked up): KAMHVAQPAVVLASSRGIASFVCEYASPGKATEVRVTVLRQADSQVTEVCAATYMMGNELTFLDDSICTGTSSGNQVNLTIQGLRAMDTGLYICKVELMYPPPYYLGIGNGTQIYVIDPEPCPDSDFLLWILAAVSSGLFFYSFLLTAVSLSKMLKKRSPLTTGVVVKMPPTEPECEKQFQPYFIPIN

T2: CTLA-4-hFc (immunogen A; hFc-labeled CTLA-4 extracellular domain protein) (human, UniProt P16410 36-161)
T2 construct: range 36-161; Made in HEK293 cells, purified on protein A; also called CLTA-4-hFc; CTLA-4 protein; not shown: human IgG Fc fragment (hFc) of the pCpC vector
T2 sequence (looked up): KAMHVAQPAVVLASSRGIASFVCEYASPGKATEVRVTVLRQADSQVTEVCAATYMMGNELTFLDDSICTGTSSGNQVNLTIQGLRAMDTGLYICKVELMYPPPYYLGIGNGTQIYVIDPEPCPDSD

T3: CTLA-4 on human T lymphocytes (PBMC, CD3+ T cells) (human, UniProt P16410 36-223)
T3 sequence (looked up): T1 sequence (looked up) with V166Y

B1: 97B8E1 (chimeric antibody purified from hybridoma supernatant) (antibody, V domains shown)
VH: QVQLVESGGGVVQPGRSLRLSCAASGFTFSSYVMHWVRQAPGKGLEWVAVIWSDGRNKYYTDSVKGRFTISRDNSKNTLYLQMSSLRAEDTAVYYCARSGIALAGNAFDIWGQGTMVTVSS
VL: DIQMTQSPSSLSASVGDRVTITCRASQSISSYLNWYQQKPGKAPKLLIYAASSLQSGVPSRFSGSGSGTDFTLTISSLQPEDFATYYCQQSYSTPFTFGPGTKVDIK
notes: also called mAb50; mAb050
B2: 97A8D1 (chimeric antibody purified from hybridoma supernatant) (antibody, V domains shown)
VH: QVQLVESGGGVVQPGRSLRLSCVASGFTFNNYGMNWVRQAPGKGLEWVAVIWYGGRNKFYADSVKGRFTISRDNSKNTLYLEMNSLRAEDTAVYYCARADWGGWFDPWGQGTLVTVSS
VL: EIVLTQSPGTLSLSPGERATLSCRASQSVSSTYLAWYQQKPGQAPRLLIHGAFSRATGIPDRFSGSGSGPDFTLTISRLEPEDFAVYYCQQYGTSPFTFGPGTKVDIK
notes: also called mAb49; mAb049
B3: 92C8B6 (chimeric antibody purified from hybridoma supernatant) (antibody, V domains shown)
VH: QVQLVESGGGVVQPGRSLRLSCAASGFTFSNFGMHWVRQAPGKGLEWVAVIWYDGSNKYYADSVKGRFTISRDNSKNTLFLQMNGLRAEDTAVYYCAKGGILMAGTLDYWGQGTLVTVSS
VL: DIQMTQSPSSLSASVGDRVTITCRASQSVSTYLNWYQQKPGKAPKLLIYAASSFQSGVPSRFSGSGSGTDFTLTISSLQPEDFATYFCQQSYSTPFTFGPGTKVDIK
notes: also called mAb42; mAb042

What was measured:
[1] = target: T1, human CTLA-4 (Y201V), full length, on …; assay: FACS, CHOK1-hCTLA-4 cells
[2] = target: T2, CTLA-4-hFc (immunogen A; hFc-labeled …); assay: ELISA, coated CTLA-4-hFc, competitor biotin-B7.2-hFc
Protocol: (§1) CTLA-4 extracellular domain protein (CTLA-4-hFc) was diluted with PBS to a final concentration of 1.0 μg/mL, and then added to a 96-well ELISA plate as 100 μl per well. The plate was covered with a plastic film and incubated overnight at 4° C. The plate was washed twice with plate washing solution [PBS containing 0.01% (v/v) Tween 20] on the next day, and added with blocking solution [PBS containing 0.01% (v/v) Tween 20 and 1% (w/w) BSA] and blocked at room temperature for 2 hours. […] After 2 hours, the plate was washed 3 times with a plate washing solution [PBS containing 0.01% (v/v) Tween 20]. HRP (horseradish peroxidase) labeled avidin diluent (purchased from Sigma) was added 100 microliters per well, and after the plate was incubated for 2 hours at 37° C., it was washed with plate washing solution [PBS containing 0.01% (v/v) Tween 20] for 3 times. […] TMB substrate was added to each well. After incubated at room temperature for 30 minutes, the plate was added with […] stop solution (1.0N HCl) to each well. An ELISA plate reader (SpectraMax 384plus, Molecular Device) was used to read the A450 nm value.

[3] = target: T2, CTLA-4-hFc (immunogen A; hFc-labeled …); assay: ELISA, coated CTLA-4-hFc, competitor biotin-B7.1-hFc
Protocol: as §1

[4] = target: T2, CTLA-4-hFc (immunogen A; hFc-labeled …); assay: competition ELISA: CTLA-4-hFc coated, antibody titrated, blocked ligand biotin-labeled B7.1-hFc, HRP-avidin, A450, inhibition (%)
Protocol: as §1

[5] = target: T3, CTLA-4 on human T lymphocytes (PBMC, …); assay: cell-based or functional assay
[6] = target: T2, CTLA-4-hFc (immunogen A; hFc-labeled …); assay: competition ELISA: CTLA-4-hFc coated, antibody titrated, blocked ligand biotin-labeled B7.2-hFc, HRP-avidin, A450, inhibition (%)
Protocol: as §1

[7] = target: T4, monkey CTLA-4, full length, on transfected HEK293 cells (monkey); assay: FACS, 293F-cCTLA-4 cells
T4 construct: whole, on cells; also called cCTLA-4; HEK293-cCTLA-4
Text: The pIRES plasmid with the monkey-derived CTLA-4 full-length gene was transfected into the HEK293 cell line to construct a HEK293 stable cell line containing monkey CTLA-4 (herein referred to as HEK293-cCTLA-4 stable cell line), wherein the database accession number of the monkey CTLA-4 nucleotide sequence is XM_005574014.1. The HEK293-hCTLA-4 stable cell line and HEK293-cCTLA-4 stable cell line were expanded in a T-75 cell culture flask to a 90% confluence. The medium was aspirated, and the cells were washed with HBSS buffer (Hanks Balanced Salt Solution, purchased from Invitrogen) twice, then treated with an enzyme-free cell dissociation fluid (Versene solution, purchased from Life technology) and the cells were collected. The cells were washed with HBSS buffer twice. After counted, the cells were diluted with HBSS buffer to 2×10⁶ cells per ml, added with 1% goat serum blocking solution, wherein the percentage was the mass percantage. Cells were incubated on ice for 30 minutes, then washed twice with HBSS buffer by centrifugation. The collected cells were suspended in the FACS buffer (HBSS containing 1% BSA, wherein the percentage was the mass percantage) to 2×10⁶ cells/ml, added as 100 microliters per well to a 96-well FACS reaction plate, added with 100 microliters per well of the purified CTLA-4 antibody sample to be tested, incubated on ice for 2 hours. The plate was washed twice with the FACS buffer by centrifugation, added with 100 microliters of fluorescent (Alexa 488)-labeled secondary antibodies (purchased from Invitrogen) per well, and incubated on ice for 1 hour. The plate was washed 3 times with FACS buffer by centrifugation, added with 100 μl fixative solution [4% (v/v) Paraformaldehyde] per well to suspend the cells. 10 minutes later, it was washed 2 times with FACS buffer by centrifugation. The cells were suspended with 100 microliters of FACS buffer, FACS (FACS Calibur, purchased from BD) was used for detection and the results were analyzed.

Binder	MFI at 0.07 nM [1]	MFI at 0.67 nM [1]	MFI at 6.67 nM [1]	MFI at 66.67 nM [1]	Inhibition rate (%) at 0.00091 nM [2] [%]	Inhibition rate (%) at 0.091 nM [2] [%]	Inhibition rate (%) at 0.274 nM [2] [%]	Inhibition rate (%) at 0.823 nM [2] [%]	Inhibition rate (%) at 2.5 nM [2] [%]	Inhibition rate (%) at 7.4 nM [2] [%]	Inhibition rate (%) at 22.2 nM [2] [%]	Inhibition rate (%) at 66.7 nM [2] [%]	Inhibition rate (%) at 0.00091 nM [3] [%]	Inhibition rate (%) at 0.091 nM [3] [%]	Inhibition rate (%) at 0.274 nM [3] [%]	Inhibition rate (%) at 0.823 nM [3] [%]	Inhibition rate (%) at 2.5 nM [3] [%]	Inhibition rate (%) at 7.4 nM [3] [%]	Inhibition rate (%) at 22.2 nM [3] [%]	Inhibition rate (%) at 66.7 nM [3] [%]	further results
B1	22	125	347	606	0	-29	2	62	78	89	91	93	0	-2	4	75	87	89	89	96	IC50 (read off the curve) [4]: ~0.5 nM; IL-2 (pg/mL) at 0.016 ug/mL, SEB PBMC test [5]: 446 pg/mL; IL-2 (pg/mL) at 0.08 ug/mL, SEB PBMC test [5]: 824 pg/mL; IL-2 (pg/mL) at 2 ug/mL, SEB PBMC test [5]: 4450 pg/mL; IL-2 (pg/mL) at 4 ug/mL (so in the source), SEB PBMC test [5]: 1950 pg/mL; IL-2 (pg/mL) at 10 ug/mL, SEB PBMC test [5]: 7910 pg/mL; IC50 (read off the curve) [6]: ~0.6 nM; MFI at 0.000128 nM [7]: 2.3; MFI at 0.0128 nM [7]: 35.7; MFI at 0.064 nM [7]: 96.8; MFI at 0.32 nM [7]: 270; MFI at 1.6 nM [7]: 504; MFI at 8 nM [7]: 757; MFI at 40 nM [7]: 810; MFI at 200 nM [7]: 784
B2	20	116	395	617	0	-21	6	76	91	95	94	95	0	-1	4	78	93	91	91	97	IC50 (read off the curve) [4]: ~0.5 nM; IL-2 (pg/mL) at 0.016 ug/mL, SEB PBMC test [5]: 336 pg/mL; IL-2 (pg/mL) at 0.08 ug/mL, SEB PBMC test [5]: 742 pg/mL; IL-2 (pg/mL) at 2 ug/mL, SEB PBMC test [5]: 4950 pg/mL; IL-2 (pg/mL) at 4 ug/mL (so in the source), SEB PBMC test [5]: 1520 pg/mL; IL-2 (pg/mL) at 10 ug/mL, SEB PBMC test [5]: 7980 pg/mL; IC50 (read off the curve) [6]: ~0.5 nM; MFI at 0.000128 nM [7]: 2.4; MFI at 0.0128 nM [7]: 23.1; MFI at 0.064 nM [7]: 67.2; MFI at 0.32 nM [7]: 225; MFI at 1.6 nM [7]: 513; MFI at 8 nM [7]: 754; MFI at 40 nM [7]: 910; MFI at 200 nM [7]: 831
B3	29	154	420	603	0	23	60	90	92	95	94	95	0	8	55	93	94	97	96	97	IC50 (read off the curve) [4]: ~0.2 nM; IL-2 (pg/mL) at 0.016 ug/mL, SEB PBMC test [5]: 355 pg/mL; IL-2 (pg/mL) at 0.08 ug/mL, SEB PBMC test [5]: 830 pg/mL; IL-2 (pg/mL) at 2 ug/mL, SEB PBMC test [5]: 3740 pg/mL; IL-2 (pg/mL) at 4 ug/mL (so in the source), SEB PBMC test [5]: 1420 pg/mL; IL-2 (pg/mL) at 10 ug/mL, SEB PBMC test [5]: 6120 pg/mL; IC50 (read off the curve) [6]: ~0.2 nM; MFI at 0.000128 nM [7]: 2.3; MFI at 0.0128 nM [7]: 22.2; MFI at 0.064 nM [7]: 67.7; MFI at 0.32 nM [7]: 208; MFI at 1.6 nM [7]: 465; MFI at 8 nM [7]: 722; MFI at 40 nM [7]: 800; MFI at 200 nM [7]: 711
